In assay [1] the target is FGFR1 (Homo sapiens) (UniProt P11362). Nature of the assay: surface plasmon resonance. To be noted: cited from earlier work.
The target is the same in assay [2]. Nature of the assay: surface plasmon resonance. To be noted: cited from earlier work. The source holds these as a separate data set. A general note: In SPR one partner is held on a chip, and binding of the other changes the refractive index at the surface.
Assay [3] deals with FGF2 (Homo sapiens) (UniProt P09038). The experiment in a line: SPR. The settings on record: cited from earlier work.
For assay [4] the target is unchanged. The experiment in a line: SPR. The settings on record: cited from earlier work. This is another data set of the same source.
The target of assay [5] is low density lipoprotein receptor-related protein (LRP) (UniProt Q07954).

Among the data in paper PMC3922351 (2007) are Kd values, retold here.

As a reminder, the Kd is the constant that tells how readily two partners part at equilibrium.

FGFR1 (Homo sapiens), sequence (P11362 22-822): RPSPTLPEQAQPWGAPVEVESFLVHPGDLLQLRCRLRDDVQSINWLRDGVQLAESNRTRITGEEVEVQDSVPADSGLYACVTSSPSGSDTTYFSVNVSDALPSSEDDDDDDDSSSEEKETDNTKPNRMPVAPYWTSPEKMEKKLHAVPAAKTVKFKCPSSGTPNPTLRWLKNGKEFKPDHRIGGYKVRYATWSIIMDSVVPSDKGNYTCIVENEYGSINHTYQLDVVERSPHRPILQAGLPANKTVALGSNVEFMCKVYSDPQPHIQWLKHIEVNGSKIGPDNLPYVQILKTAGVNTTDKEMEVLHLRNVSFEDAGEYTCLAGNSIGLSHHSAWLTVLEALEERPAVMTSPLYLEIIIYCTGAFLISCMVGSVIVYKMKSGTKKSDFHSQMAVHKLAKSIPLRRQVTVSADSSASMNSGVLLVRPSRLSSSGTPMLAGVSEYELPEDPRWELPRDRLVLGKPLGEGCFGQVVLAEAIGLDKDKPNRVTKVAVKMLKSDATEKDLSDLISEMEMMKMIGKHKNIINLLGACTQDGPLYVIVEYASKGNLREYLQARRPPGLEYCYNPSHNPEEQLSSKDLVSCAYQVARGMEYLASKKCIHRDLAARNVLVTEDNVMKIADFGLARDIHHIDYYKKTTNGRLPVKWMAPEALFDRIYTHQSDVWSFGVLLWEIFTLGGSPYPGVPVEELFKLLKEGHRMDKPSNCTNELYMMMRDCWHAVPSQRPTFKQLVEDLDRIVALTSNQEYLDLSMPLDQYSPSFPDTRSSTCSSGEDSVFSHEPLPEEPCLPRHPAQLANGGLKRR
FGF2 (Homo sapiens), sequence (P09038 143-288): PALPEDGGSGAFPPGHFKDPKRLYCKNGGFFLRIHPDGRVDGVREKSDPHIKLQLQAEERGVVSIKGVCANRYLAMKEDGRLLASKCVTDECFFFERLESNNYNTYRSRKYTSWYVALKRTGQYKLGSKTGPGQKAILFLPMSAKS

Turning to FGF2 (from UniProt P09038), the Kd was 62 nM with FGFR1 (Homo sapiens) [1] and 2.7 nM with FGFR1 (Homo sapiens) [2].
Turning to FGFR1 (from UniProt P11362), the Kd with FGF2 (Homo sapiens) [3] was 2.7 nM; with FGF2 (Homo sapiens) [4], 62 nM.

B1: pro-heparanase-1 (protein)
chain: QDVVDLDFFTQEPLHLVSPSFLSVTIDANLATDPRFLILLGSPKLRTLARGLSPAYLRFGGTKTDFLIFDPKKESTFEERSYWQSQVNQDICKYGSIPPDVEEKLRLEWPYQEQLLLREHYQKKFKNSTYSRSSVDVLYTFANCSGLDLIFGLNALLRTADLQWNSSNAQLLLDYCSSKGYNISWELGNEPNSFLKKADIFINGSQLGEDFIQLHKLLRKSTFKNAKLYGPDVGQPRRKTAKMLKSFLKAGGEVIDSVTWHHYYLNGRTATKEDFLNPDVLDIFISSVQKVFQVVESTRPGKKVWLGETSSAYGGGAPLLSDTFAAGFMWLDKLGLSARMGIEVVMRQVFFGAGNYHLVDENFDPLPDYWLSLLFKKLVGTKVLMASVQGSKRRKLRVYLHCTNTDNPRYKEGDLTLYAINLHNVTKYLRLPYPFSNKQVDKYLLRPLGPHGLLSKSVQLNGLTLKMVDDQTLPPLMEKPLRPGSSLGLPAFSYSFFVIRNAKVAACI
With B1, the Kd in assay [5] is roughly 1.06 nM.

B2: pro-heparanase-1 (protein)
chain: B1 chain
modifications: complex of LRP with heparan sulphate proteoglycans (HSPG)
For B2, the Kd in assay [5] was roughly 0.05 nM.
